Test results taken from article PMC5025857, “Redox-dependent Regulation of Gluconeogenesis by a Novel Mechanism Mediated by a Peroxidatic Cysteine of Peroxiredoxin” (Scientific Reports, 2016).
Positions count from the first letter of the chain named.

T1: HA-tagged Pyk1 (HA-Pyk1) (S. cerevisiae, UniProt P00549 1-500)
T1 construct: Pyk1 (Cdc19), pyruvate kinase of S. cerevisiae; also called pRS313-HA-PYK1; source: S. cerevisiae (pyk1∆ tsa1/2∆ or pyk1∆ cells) carrying pRS313-HA-PYK1, in lysate (whole cell extract)
T1 sequence (looked up): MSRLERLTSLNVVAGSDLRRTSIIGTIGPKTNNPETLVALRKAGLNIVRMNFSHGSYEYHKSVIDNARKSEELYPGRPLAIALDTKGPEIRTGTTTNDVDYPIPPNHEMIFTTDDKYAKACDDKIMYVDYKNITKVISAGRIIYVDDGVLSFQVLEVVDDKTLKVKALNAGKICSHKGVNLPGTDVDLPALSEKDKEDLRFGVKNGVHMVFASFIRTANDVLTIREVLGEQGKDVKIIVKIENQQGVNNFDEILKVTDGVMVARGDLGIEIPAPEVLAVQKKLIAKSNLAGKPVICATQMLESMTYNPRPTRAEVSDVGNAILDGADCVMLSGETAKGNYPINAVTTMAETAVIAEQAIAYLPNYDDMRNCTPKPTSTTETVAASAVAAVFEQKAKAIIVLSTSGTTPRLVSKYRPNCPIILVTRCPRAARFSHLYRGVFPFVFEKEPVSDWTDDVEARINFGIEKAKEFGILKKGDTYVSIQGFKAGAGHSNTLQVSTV

B1: Tsa1^C48T (enzyme, S. cerevisiae, UniProt P34760 1-196, looked up)
chain: MVAQVQKQAPTFKKTAVVDGVFDEVSLDKYKGKYVVLAFIPLAFTFVTPTEIIAFSEAAKKFEEQGAQVLFASTDSEYSLLAWTNIPRKEGGLGPINIPLLADTNHSLSRDYGVLIEEEGVALRGLFIIDPKGVIRHITINDLPVGRNVDEALRLVEAFQWTDKNGTVLPCNWTPGAATIKPTVEDSKEYFEAANK
notes: Tsa1 of S. cerevisiae with the peroxidatic cysteine Cys48 mutated to Thr; source: S. cerevisiae pyk1∆ tsa1/2∆ cells carrying an expression vector (pRS315), in lysate
B2: Tsa1^C171T (enzyme, S. cerevisiae, UniProt P34760 1-196, looked up)
chain: B1 chain with T48C, C171T
notes: Tsa1 of S. cerevisiae with the resolving cysteine Cys171 mutated to Thr; source: S. cerevisiae tsa1/2Δ cells carrying an expression vector (pRS315), in lysate

Molecular target: T1, HA-tagged Pyk1 (HA-Pyk1)
Assay: co-IP; HA-Pyk1 precipitated with anti-HA antibody beads from yeast whole cell extract (400 μg; IP buffer: 100 mM MES pH 7.0, 200 mM KCl, 15 mM MgCl2, 5% glycerol, 0.15% NP-40, 50 mM NEM; 4 °C, 3 h); immunoblot with anti-Tsa1, anti-Pyk1 and anti-Prx-SO2/SO3; cells from glucose (SDM) or ethanol (SEM -Trp) medium, exponential, diauxic shift or early stationary phase, with or without 1, 3 or 10 mM H2O2
Conditions: partners not purified

Row | Binder | fold decrease of Pyk1-bound Tsa1 against wild-type Tsa1 (ethanol medium) | stoichiometry N
1 | B1 | ~3 fold | 
2 | B2 |  | 8 molecules of Tsa1^C171T for each tetramer of Pyk1
